From publication PMC9119168

Molecular target: 10 amino acid biotinylated and ADP-ribosylated peptide [ARTK(Bio)QTARK (Aoa-RADP)S]
Assay: AlphaScreen or HTRF

Chain of MERS-CoV Mac1, His-tagged (domain or fragment) (K9N638 1110-1276 limits assumed): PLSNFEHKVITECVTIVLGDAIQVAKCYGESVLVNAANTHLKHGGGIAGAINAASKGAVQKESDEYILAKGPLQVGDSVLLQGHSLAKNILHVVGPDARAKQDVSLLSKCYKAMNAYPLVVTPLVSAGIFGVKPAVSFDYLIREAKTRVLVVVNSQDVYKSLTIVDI

Row | Substance | macrodomain concentration at the maximum AS signal [µM]
1 | MERS-CoV Mac1, His-tagged (domain or fragment) | 1.25 to 2.5
2 | SARS-CoV Mac1, His-tagged (domain or fragment) | 1.25 to 2.5
3 | SARS-CoV-2 Mac1 (conserved macrodomain of non-structural protein 3), His-tagged (from UniProt P0DTD1) (domain or fragment) | 0.625
4 | human macrodomain Mdo2, His-tagged (domain or fragment) | 0.04
